Reference: patent US20050214207A1 (published 2005)
Several values for one entry are separate records, joined by “and”; a condition that tells them apart may be missing. Equal values may be shown once.

How the values were obtained:
[1] = target: T1, TR7-Fc fusion protein (Ala-Asp-Pro fused to E52-G184 of TR7, SEQ ID NO:3, fused to the Fc region) (human, UniProt O14763 52-184); experiment: competition ELISA: inhibition of biotinylated TRAIL binding to TR7-Fc captured on anti-human Fc
T1 construct: Expressed in baculovirus with the GP signal peptide; it is read as TR7; also called TR7-Fc receptor; TRAILR2; not shown: Fc region
Experimental: Goat anti-human Fc is diluted to 0.1 micrograms/ml in coating buffer. An Immulon 4 microplate is coated with 100 microliters per well of the Goat anti-human Fc solution and incubated overnight at 4° C. The coating solution is decanted from the plate, and blocking solution is dispensed at 200 microliters per well. The plate is incubated at room temperature for 1 hour. After the 1 hour incubation period, the blocking solution is decanted from the plate and 1 microgram/mL of TR7-Fc is dispensed at 100 microliters/well and incubated for 2 hours at room temperature. After the incubation, the plate is washed five times manually using a Wheaton manifold.
Antibodies corresponding to scFvs of the present invention are (previously) prepared in a low binding dilution plate using diluent. The antibodies are prepared in duplicate and are diluted from the stock concentration with 2.5 fold dilutions for the 7 subsequent wells. If a purified form of the antibody is available, the starting concentration is 5 micrograms/mL. The positive control (TR7-Fc) is diluted from 5 micrograms/mL. 100 microliters is transferred into the ELISA plate and pre-incubated for 30 minutes at room temperature. […]
After the one-hour incubation, the plate is decanted and washed with PBST five times and blotted. […] The plate is immediately read at 450 nm using the spectrometer from Molecular Devices.

[2] = target: T1, TR7-Fc fusion protein (Ala-Asp-Pro …); experiment: SPR (BIAcore 2000), TR7-Fc amine-coupled to CM5 chip, antibody as analyte, separate fitting of the dissociation phase
Experimental: (§1) TR7-Fc and TR2-Fc were immobilized on individual flow cells of a BIAcore CM5 sensor chip (BIAcore, Cat# BR-1000-14). Amine coupling (BIAcore, Cat# BR-1000-50) was used to covalently bind each receptor to the dextran matrix on the sensor chip. The optimal pH for this coupling was analyzed using preconcentration experiments ranging from pH 4-7 and was determined to be pH 4.0 based on the slope of the binding. The actual coupling was performed using the manual injection mode. A target level of 200 relative units (RU) was set as the goal for both flow cells. A response of 1000 RU correlates to a change in surface concentration of about 1 ng/mm² for proteins. The molecular weight of the TR7 and TR2 fusion proteins was nearly identical. The concentration of both receptors for immobilization was 5 μg/ml in 10 mM acetate, pH 4.0 (BIAcore, Cat# BR-1003-49). The entire experiment was performed at a flow rate of 5 μL/min. Contact time for the N-ethyl-N′-(3-dimethylaminoprolpyl)carbodiimide hydrochloride/Ethanolamine hydrochloride-NaOH, pH 8.5 (EDC/NHS) injection was 3 minutes. […]
(§2) Analysis of CM005G08 kinetics was performed using the BIAcore 2000 instrument with the 2000 control software, version 3.1.1. […] The off rate of CM005G08 was determined by washing the complex in the presence of HBS-EP buffer for 10 minutes. […]
(§3) The binding data were analyzed using the BIAevaluation software, version 3.1. […]

[3] = target: T1, TR7-Fc fusion protein (Ala-Asp-Pro …); experiment: SPR (BIAcore 2000), TR7-Fc amine-coupled to CM5 chip, antibody as analyte, 1:1 Langmuir model, double-reference subtraction, mean±STD of three experiments
Experimental: as §1, §2, §3

IC50 [1]: 5.3 nM and 6.89 nM
koff [2]: 0.00266 s⁻¹ and 0.00268 s⁻¹
Kd [3]: 0.25 nM and 0.33 nM
B1: CM005G08 whole IgG1 antibody comprising the VH and VL domains of the CM005G08 scFv (antibody, V domains shown)
VH: EVQLVQSGGGVERPGGSLRLSCAASGFTFDDYGMSWVRQAPGKGLEWVSGINWNGGSTGYADSVKGRVTISRDNAKNSLYLQMNSLRAEDTAVYYCAKILGAGRGWYFDLWGKGTTVTVSS
VL: SSELTQDPAVSVALGQTVRITCQGDSLRSYYASWYQQKPGQAPVLVIYGKNNRPSGIPDRFSGSSSGNTASLTITGAQAEDEADYYCNSRDSSGNHVVFGGGTKLTVLG
notes: Two lots were tested; also called CM05G08; IgG1 format of CM005G08
